Data reported in the supplement of paper PMC5998384.

Key:
[1] = tested on: HeLa Kyoto; experiment: solubility in G1/S (NP-40 vs SDS abundance) (log2 ratio); higher = more soluble; conditions: cell cycle stage: G1/S
[2] = tested on: HeLa Kyoto; experiment: solubility change mitosis vs G1/S (difference of NP-40 vs SDS log2 ratios) (log2 ratio difference); higher = more soluble in mitosis
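Wherever solubility change mitosis vs G1/S (difference of NP-40 vs SDS log2 ratios) is given: synchronized HeLa Kyoto cells (double thymidine block for G1/S, nocodazole release for mitosis), protein amounts in NP-40 versus SDS lysates quantified by mass spectrometry, three biological replicates.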
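Wherever solubility in G1/S (NP-40 vs SDS abundance) is given: HeLa Kyoto cells arrested at G1/S by double thymidine block, proteins quantified by TMT10plex mass spectrometry in mild NP-40 versus SDS extracts, three biological replicates.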

| Sequence | solubility in G1/S (log2) [1] | solubility change mitosis (log2) [2] |
| --- | --- | --- |
| MNFEGLDPGLAEYAPAMHSALDPVLDAHLNPSLLQNVELDPEGVALEALPVQESVHIMEGVYSELHSVVAEVGVPVSVSHFDLHEEMLWVGSHGGHATSFFGPALERYSSFQVNGSDDIRQIQSLENGILFLTKNNLKYMARGGLIIFDYLLDENEDMHSLLLTDSSTLLVGGLQNHIIEIDLNTVQETQKYAVETPGVTIMRQTNRFFFCGHTSGKVSLRDLRTFKVEHEFDAFSGSLSDFDVHGNLLAACGFSSRLTGLACDRFLKVYDLRMMRAITPLQVHVDPAFLRFIPTYTSRLAIISQSGQCQFCEPTGLANPADIFHVNPVGPLLMTFDVSASKQALAFGDSEGCVHLWTDSPEPSFNPYSRETEFALPCLVDSLPPLDWSQDLLPLSLIPVPLTTDTLLSDWPAANSAPAPRRAPPVDAEILRTMKKVGFIGYAPNPRTRLRNQIPYRLKESDSEFDSFSQVTESPVGREEEPHLHMVSKKYRKVTIKYSKLGLEDFDFKHYNKTLFAGLEPHIPNAYCNCMIQVLYFLEPVRCLIQNHLCQKEFCLACELGFLFHMLDLSRGDPCQGNNFLRAFRTIPEASALGLILADSDEASGKGNLARLIQRWNRFILTQLHQDMQELEIPQAYRGAGGSSFCSSGDSVIGQLFSCEMENCSLCRCGSETVRASSTLLFTLSYPDGSKSDKTGKNYDFAQVLKRSICLDQNTQAWCDTCEKYQPTIQTRNIRHLPDILVINCEVNSSKEADFWRMQAEVAFKMAVKKHGGEISKNKEFALADWKELGSPEGVLVCPSIEELKNVWLPFSIRMKMTKNKGLDVCNWTDGDEMQWGPARAEEEHGVYVYDLMATVVHILDSRTGGSLVAHIKVGETYHQRKEGVTHQQWYLFNDFLIEPIDKHEAVQFDMNWKVPAILYYVKRNLNSRYNLNIKNPIEASVLLAEASLARKQRKTHTTFIPLMLNEMPQIGDLVGLDAEFVTLNEEEAELRSDGTKSTIKPSQMSVARITCVRGQGPNEGIPFIDDYISTQEQVVDYLTQYSGIKPGDLDAKISSKHLTTLKSTYLKLRFLIDIGVKFVGHGLQKDFRVINLMVPKDQVLDTVYLFHMPRKRMISLRFLAWYFLDLKIQGETHDSIEDARTALQLYRKYLELSKNGTEPESFHKVLKGLYEKGRKMDWKVPEPEGQTSPKNAAVFSSVLAL [PAN2] | -0.18 | 0.206 |
| MNGPADGEVDYKKKYRNLKRKLKFLIYEHECFQEELRKAQRKLLKVSRDKSFLLDRLLQYENVDEDSSDSDATASSDNSETEGTPKLSDTPAPKRKRSPPLGGAPSPSSLSLPPSTGFPLQASGVPSPYLSSLASSRYPPFPSDYLALQLPEPSPLRPKREKRPRLPRKLKMAVGPPDCPVGGPLTFPGRGSGAGVGTTLTPLPPPKMPPPTILSTVPRQMFSDAGSGDDALDGDDDLVIDIPE [INO80E] | 0.135 | 0.288 |
| MNGTRNWCTLVDVHPEDQAAGSVDILRLTLQGELTGDELEHIAQKAGRKTYAMVSSHSAGHSLASELVESHDGHEEIIKVYLKGRSGDKMIHEKNINQLKSEVQYIQEARNCLQKLREDISSKLDRNLGDSLHRQEIQVVLEKPNGFSQSPTALYSSPPEVDTCINEDVESLRKTVQDLLAKLQEAKRQHQSDCVAFEVTLSRYQREAEQSNVALQREEDRVEQKEAEVGELQRRLLGMETEHQALLAKVREGEVALEELRSNNADCQAEREKAATLEKEVAGLREKIHHLDDMLKSQQRKVRQMIEQLQNSKAVIQSKDATIQELKEKIAYLEAENLEMHDRMEHLIEKQISHGNFSTQARAKTENPGSIRISKPPSPKPMPVIRVVET [TUFT1] | 0.415 | 0.112 |
| MNQFGPSALINLSNFSSIKPEPASTPPQGSMANSTAVVKIPGTPGAGGRLSPENNQVLTKKKLQDLVREVDPNEQLDEDVEEMLLQIADDFIESVVTAACQLARHRKSSTLEVKDVQLHLERQWNMWIPGFGSEEIRPYKKACTTEAHKQRMALIRKTTKK [TAF12] | -0.0469 | 0.151 |
| MNRVLCAPAAGAVRALRLIGWASRSLHPLPGSRDRAHPAAEEEDDPDRPIEFSSSKANPHRWSVGHTMGKGHQRPWWKVLPLSCFLVALIIWCYLREESEADQWLRQVWGEVPEPSDRSEEPETPAAYRART [CCSMST1] | -0.299 | 0.566 |
| MPDQALQQMLDRSCWVCFATDEDDRTAEWVRPCRCRGSTKWVHQACLQRWVDEKQRGNSTARVACPQCNAEYLIVFPKLGPVVYVLDLADRLISKACPFAAAGIMVGSIYWTAVTYGAVTVMQVVGHKEGLDVMERADPLFLLIGLPTIPVMLILGKMIRWEDYVLRLWRKYSNKLQILNSIFPGIGCPVPRIPAEANPLADHVSATRILCGALVFPTIATIVGKLMFSSVNSNLQRTILGGIAFVAIKGAFKVYFKQQQYLRQAHRKILNYPEQEEA [MARCH5] | -0.272 | 0.0312 |
| MPGAGARAEEGGGGGEGAAQGAAAEPGAGPAREPARLCGYLQKLSGKGPLRGYRSRWFVFDARRCYLYYFKSPQDALPLGHLDIADACFSYQGPDEAAEPGTEPPAHFQVHSAGAVTVLKAPNRQLMTYWLQELQQKRWEYCNSLDMVKWDSRTSPTPGDFPKGLVARDNTDLIYPHPNASAEKARNVLAVETVPGELVGEQAANQPAPGHPNSINFYSLKQWGNELKNSMSSFRPGRGHNDSRRTVFYTNEEWELLDPTPKDLEESIVQEEKKKLTPEGNKGVTGSGFPFDFGRNPYKGKRPLKDIIGSYKNRHSSGDPSSEGTSGSGSVSIRKPASEMQLQVQSQQEELEQLKKDLSSQKELVRLLQQTVRSSQYDKYFTSSRLCEGVPKDTLELLHQKDDQILGLTSQLERFSLEKESLQQEVRTLKSKVGELNEQLGMLMETIQAKDEVIIKLSEGEGNGPPPTVAPSSPSVVPVARDQLELDRLKDNLQGYKTQNKFLNKEILELSALRRNAERRERDLMAKYSSLEAKLCQIESKYLILLQEMKTPVCSEDQGPTREVIAQLLEDALQVESQEQPEQAFVKPHLVSEYDIYGFRTVPEDDEEEKLVAKVRALDLKTLYLTENQEVSTGVKWENYFASTVNREMMCSPELKNLIRAGIPHEHRSKVWKWCVDRHTRKFKDNTEPGHFQTLLQKALEKQNPASKQIELDLLRTLPNNKHYSCPTSEGIQKLRNVLLAFSWRNPDIGYCQGLNRLVAVALLYLEQEDAFWCLVTIVEVFMPRDYYTKTLLGSQVDQRVFRDLMSEKLPRLHGHFEQYKVDYTLITFNWFLVVFVDSVVSDILFKIWDSFLYEGPKVIFRFALALFKYKEEEILKLQDSMSIFKYLRYFTRTILDARKLISISFGDLNPFPLRQIRNRRAYHLEKVRLELTELEAIREDFLRERDTSPDKGELVSDEEEDT [TBC1D2B] | -0.186 | -0.0456 |
| MPGEEEERAFLVAREELASALRRDSGQAFSLEQLRPLLASSLPLAARYLQLDAARLVRCNAHGEPRNYLNTLSTALNILEKYGRNLLSPQRPRYWRGVKFNNPVFRSTVDAVQGGRDVLRLYGYTEEQPDGLSFPEGQEEPDEHQVATVTLEVLLLRTELSLLLQNTHPRQQALEQLLEDKVEDDMLQLSEFDPLLREIAPGPLTTPSVPGSTPGPCFLCGSAPGTLHCPSCKQALCPACDHLFHGHPSRAHHLRQTLPGVLQGTHLSPSLPASAQPRPQSTSLLALGDSSLSSPNPASAHLPWHCAACAMLNEPWAVLCVACDRPRGCKGLGLGTEGPQGTGGLEPDLARGRWACQSCTFENEAAAVLCSICERPRLAQPPSLVVDSRDAGICLQPLQQGDALLASAQSQVWYCIHCTFCNSSPGWVCVMCNRTSSPIPAQHAPRPYASSLEKGPPKPGPPRRLSAPLPSSCGDPEKQRQDKMREEGLQLVSMIREGEAAGACPEEIFSALQYSGTEVPLQWLRSELPYVLEMVAELAGQQDPGLGAFSCQEARRAWLDRHGNLDEAVEECVRTRRRKVQELQSLGFGPEEGSLQALFQHGGDVSRALTELQRQRLEPFRQRLWDSGPEPTPSWDGPDKQSLVRRLLAVYALPSWGRAELALSLLQETPRNYELGDVVEAVRHSQDRAFLRRLLAQECAVCGWALPHNRMQALTSCECTICPDCFRQHFTIALKEKHITDMVCPACGRPDLTDDTQLLSYFSTLDIQLRESLEPDAYALFHKKLTEGVLMRDPKFLWCAQCSFGFIYEREQLEATCPQCHQTFCVRCKRQWEEQHRGRSCEDFQNWKRMNDPEYQAQGLAMYLQENGIDCPKCKFSYALARGGCMHFHCTQCRHQFCSGCYNAFYAKNKCPEPNCRVKKSLHGHHPRDCLFYLRDWTALRLQKLLQDNNVMFNTEPPAGARAVPGGGCRVIEQKEVPNGLRDEACGKETPAGYAGLCQAHYKEYLVSLINAHSLDPATLYEVEELETATERYLHVRPQPLAGEDPPAYQARLLQKLTEEVPLGQSIPRRRK [RNF31] | -0.0767 | -0.0502 |
| MPGRAEAGEAEEEAGAGSGSEAEEDALWERIEGVRHRLARALNPAKLTPYLRQCRVIDEQDEEEVLSTYRFPCRVNRTGRLMDILRCRGKRGYEAFLEALEFYYPEHFTLLTGQEPAQRCSMILDEEGPEGLTQFLMTEVRRLREARKSQLQREQQLQARGRVLEEERAGLEQRLRDQQQAQERCQRLREDWEAGSLELLRLKDENYMIAMRLAQLSEEKNSAVLRSRDLQLAVDQLKLKVSRLEEECALLRRARGPPPGAEEKEKEKEKEKEPDNVDLVSELRAENQRLTASLRELQEGLQQEASRPGAPGSERILLDILEHDWREAQDSRQELCQKLHAVQGELQWAEELRDQYLQEMEDLRLKHRTLQKDCDLYKHRMATVLAQLEEIEKERDQAIQSRDRIQLQYSQSLIEKDQYRKQVRGLEAERDELLTTLTSLEGTKALLEVQLQRAQGGTCLKACASSHSLCSNLSSTWSLSEFPSPLGGPEATGEAAVMGGPEPHNSEEATDSEKEINRLSILPFPPSAGSILRRQREEDPAPPKRSFSSMSDITGSVTLKPWSPGLSSSSSSDSVWPLGKPEGLLARGCGLDFLNRSLAIRVSGRSPPGGPEPQDKGPDGLSFYGDRWSGAVVRRVLSGPGSARMEPREQRVEAAGLEGACLEAEAQQRTLLWNQGSTLPSLMDSKACQSFHEALEAWAKGPGAEPFYIRANLTLPERADPHALCVKAQEILRLVDSAYKRRQEWFCTRVDPLTLRDLDRGTVPNYQRAQQLLEVQEKCLPSSRHRGPRSNLKKRALDQLRLVRPKPVGAPAGDSPDQLLLEPCAEPERSLRPYSLVRPLLVSALRPVVLLPECLAPRLIRNLLDLPSSRLDFQVCPAESLSGEELCPSSAPGAPKAQPATPGLGSRIRAIQESVGKKHCLLELGARGVRELVQNEIYPIVIHVEVTEKNVREVRGLLGRPGWRDSELLRQCRGSEQVLWGLPCSWVQVPAHEWGHAEELAKVVRGRILQEQARLVWVECGSSRGCPSSSEA [CARD10] | -0.0585 | 0.0575 |
| MPLLVEGRRVRLPQSAGDLVRAHPPLEERARLLRGQSVQQVGPQGLLYVQQRELAVTSPKDGSISILGSDDATTCHIVVLRHTGNGATCLTHCDGTDTKAEVPLIMNSIKSFSDHAQCGRLEVHLVGGFSDDRQLSQKLTHQLLSEFDRQEDDIHLVTLCVTELNDREENENHFPVIYGIAVNIKTAEIYRASFQDRGPEEQLRAARTLAGGPMISIYDAETEQLRIGPYSWTPFPHVDFWLHQDDKQILENLSTSPLAEPPHFVEHIRSTLMFLKKHPSPAHTLFSGNKALLYKKNEDGLWEKISSPGS [NTAN1] | -0.142 | 0.176 |
